Common to all, as to test: radioligand binding
What all share (conditions): one partner purified

Experiment [1] concerns the target T1, CCR5 Thr^2.56(82)Lys/Arg^6.32(225)Gln double-mutant receptor (human, UniProt P51681 1-352, Thr^2.56(82)Lys | Arg^6.32(225)Gln).
T1 construct: also called T^2.56(82)K/R^6.32(225)Q; T^2.69(82)K/R^6.32(225)Q; source: HOS-CD4-Luc, transiently transfected, on cells (fusion)
T1 sequence: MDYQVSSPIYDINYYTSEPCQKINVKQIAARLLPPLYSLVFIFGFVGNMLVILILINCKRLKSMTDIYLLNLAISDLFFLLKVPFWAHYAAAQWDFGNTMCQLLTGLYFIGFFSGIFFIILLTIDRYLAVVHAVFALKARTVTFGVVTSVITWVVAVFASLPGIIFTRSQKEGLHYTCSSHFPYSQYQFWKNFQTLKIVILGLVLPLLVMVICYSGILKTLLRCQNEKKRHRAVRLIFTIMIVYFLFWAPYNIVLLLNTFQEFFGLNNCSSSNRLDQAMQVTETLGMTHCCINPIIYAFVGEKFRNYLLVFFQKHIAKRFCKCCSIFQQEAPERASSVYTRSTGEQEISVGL

For experiment [2], the target named is T2, wild type human CCR5 chemokine receptor (human, UniProt P51681 1-352).
T2 construct: source: HOS-CD4-Luc, transiently transfected, on cells (fusion)

Experiment [3] deals with T3, CCR5 Thr^2.56(82)Pro mutant receptor (human, UniProt P51681 1-352, Thr^2.56(82)Pro).
T3 construct: also called T^2.69(82)P; source: HOS-CD4-Luc, transiently transfected, on cells (fusion)
T3 sequence: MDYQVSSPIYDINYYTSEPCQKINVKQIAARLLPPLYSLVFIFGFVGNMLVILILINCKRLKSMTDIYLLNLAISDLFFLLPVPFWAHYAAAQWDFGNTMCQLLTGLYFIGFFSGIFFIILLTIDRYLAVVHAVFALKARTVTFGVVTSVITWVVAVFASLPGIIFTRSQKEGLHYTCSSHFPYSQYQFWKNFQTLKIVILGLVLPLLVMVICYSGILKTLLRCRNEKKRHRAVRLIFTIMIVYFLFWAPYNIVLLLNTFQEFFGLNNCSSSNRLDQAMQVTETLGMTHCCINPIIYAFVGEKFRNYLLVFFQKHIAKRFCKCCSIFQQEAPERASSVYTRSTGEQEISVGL

Experiment [4] addresses T4, CCR5 Thr^2.56(82)Pro/Arg^6.32(225)Gln double-mutant receptor (human, UniProt P51681 1-352, Thr^2.56(82)Pro | Arg^6.32(225)Gln).
T4 construct: also called T^2.56(82)P/R^6.32(225)Q; T^2.69(82)P/R^6.32(225)Q; source: HOS-CD4-Luc, transiently transfected, on cells (fusion)
T4 sequence: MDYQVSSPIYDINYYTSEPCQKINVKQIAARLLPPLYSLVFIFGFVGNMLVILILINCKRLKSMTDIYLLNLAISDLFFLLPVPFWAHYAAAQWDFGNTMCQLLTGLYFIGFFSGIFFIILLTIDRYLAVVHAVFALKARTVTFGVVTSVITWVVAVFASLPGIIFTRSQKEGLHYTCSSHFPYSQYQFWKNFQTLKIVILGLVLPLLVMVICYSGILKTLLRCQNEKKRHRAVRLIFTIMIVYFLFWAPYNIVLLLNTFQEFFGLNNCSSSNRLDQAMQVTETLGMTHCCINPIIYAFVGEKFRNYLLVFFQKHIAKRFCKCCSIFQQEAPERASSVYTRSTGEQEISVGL

B1: macrophage inflammatory protein 1β (MIP-1β, CCL4), recombinant human, unlabelled (ligand)
chain: APMGSDPPTACCFSYTARKLPRNFVVDYYETSSLCSQPAVVFQTKRSKQVCADPSESWVQEYVYDLELN
notes: also called unlabelled MIP-1β; source: bought: Peprotec (Rocky Hill, NJ)
The IC50 is the point on the concentration scale where inhibition reaches its midpoint. Low readings indicate inhibition by little substance, high ones a need for much substance. Regarding B1, the IC50 in experiment [1] worked out at 20.7 nM; in experiment [2], 32.6 nM; in experiment [3] it was 31.9 nM; in experiment [4], 30.6 nM.
